Consider 120 sequences from the supplement of paper PMC10126150.

The data set has as its system ATP. Put plainly: switch fluorescence ratio, 500 uM ATP over buffer (Cy3 cluster intensity, sum of 5 cycles each) (fold (ratio)); higher = stronger signal-on switching upon ATP binding; sequences stand for … in TCGTCGGCAGCGTCAGATGTGTATAAGAGACAGTTTTTTTTTTTTTTTTTTTTTTTTT…TC. The settings on record: aptamer strand: ATP DNA aptamer (quencher-CACCTGGGGGAGTATTGCGGAGGAAGG + anchor), 100 nM annealed; ATP concentration: 500 uM. In short, it runs like this:
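Switching-strand clusters labelled with Cy3 on a modified Illumina MiSeq flow-cell were annealed to 100 nM quencher-labelled ATP aptamer, imaged in selection buffer, and re-imaged after 15 min with 500 uM ATP at 22 °C. This was done over five cycles with NaOH stripping and re-annealing in between. The fluorescence ratio is summed target-cycle over summed buffer-cycle Cy3 intensity per cluster, averaged per switch-domain sequence, excluding clusters outside 100-1000 RFU.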

± gives the standard deviation of the averaged measurements.
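Note: ATP exposure 15 min at 22 °C before imaging.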

As for GGGTCGGGGA, the switch fluorescence ratio came to 0.97587 ± 0.00076. Consider GGGTCGGGGT, for which the switch fluorescence ratio is 0.99 ± 0.029. The figure for GGGTCTACCG is 0.991 ± 0.015. Regarding GGGTCTGCGC, the switch fluorescence ratio was determined as 1.03 ± 0.024. The figure for GGGTCTTCGT is 0.968 ± 0.039; for GGGTGAAGGG it is 0.974 ± 0.021. The figure for GGGTGACGGG is 1.01 ± 0.074. To GGGTGATTCC belongs 1.03 ± 0.014; to GGGTGATTGC, 0.964 ± 0.011. GGGTGCCCAT: the switch fluorescence ratio stood at 1.03 ± 0.021. As to GGGTGCGATT, the switch fluorescence ratio came out at 1.03 ± 0.025. To GGGTGCTTGG belongs 1.0239 ± 0.00098. To GGGTGGCGGT belongs 1.01 ± 0.021; to GGGTGGGATA, 1.02 ± 0.044; to GGGTGGGCTT, 0.997 ± 0.032.

For GGGTGGGGAG, the switch fluorescence ratio was 0.984 ± 0.045. The figure for GGGTGGGGCT is 1.01 ± 0.031; for GGGTGGGGG it is 1.01 ± 0.033. The figure for GGGTGGGGGC is 1.02 ± 0.037.

GGGTGGGGTA: the switch fluorescence ratio worked out at 0.971 ± 0.036.

In the case of GGGTGGGTAG, the switch fluorescence ratio is 0.955 ± 0.037.

In the case of GGGTGGGTCA, the switch fluorescence ratio was determined as 1.01 ± 0.048. On to GGGTGGTCAG, for which the switch fluorescence ratio came out at 1.01 ± 0.023. GGGTGGTGGA: the switch fluorescence ratio was 1.01 ± 0.019.

On to GGGTGTAAAA, for which the switch fluorescence ratio came out at 1 ± 0.022. To GGGTGTAAGG belongs 0.998 ± 0.022. On to GGGTGTAGTG, for which the switch fluorescence ratio amounted to 0.988 ± 0.024.

As for GGGTGTATCG, the switch fluorescence ratio is 0.9943 ± 0.0036. The figure for GGGTGTCCTT is 0.998 ± 0.042; for GGGTGTGGGA it is 0.997 ± 0.017. To GGGTGTGTGT belongs 1.02 ± 0.017; to GGGTGTTTAG, 1.01 ± 0.027; to GGGTGTTTGC, 1.02 ± 0.035. To GGGTGTTTTC belongs 0.998 ± 0.034.

As to GGGTGTTTTT, the switch fluorescence ratio came to 0.98 ± 0.0073. Regarding GGGTTAACGG, the switch fluorescence ratio came to 1 ± 0.018.

In the case of GGGTTAAGCA, the switch fluorescence ratio amounted to 0.9961 ± 0.0055.

On to GGGTTAAGGC, for which the switch fluorescence ratio was determined as 1.01 ± 0.062. To GGGTTAATCG belongs 1 ± 0.022. The figure for GGGTTAATTG is 0.983 ± 0.017. As for GGGTTAGAAA, the switch fluorescence ratio came out at 1 ± 0.043.

GGGTTAGGGC: the switch fluorescence ratio stood at 0.988 ± 0.023.

Regarding GGGTTAGGTG, the switch fluorescence ratio came out at 1.14 ± 0.065. To GGGTTAGGTT belongs 1.01 ± 0.064; to GGGTTATCAG, 0.981 ± 0.035. To GGGTTATGCG belongs 1.04 ± 0.027; to GGGTTCCTGG, 0.995 ± 0.028. The figure for GGGTTCGGAA is 0.9972 ± 0.0093; for GGGTTCGGGA it is 0.991 ± 0.027; for GGGTTGAAGT it is 0.985 ± 0.008. For GGGTTGACGG, the switch fluorescence ratio came out at 0.986 ± 0.057.

Turning to GGGTTGGACT, the switch fluorescence ratio was found to be 0.999 ± 0.012.

Consider GGGTTGGCGT, for which the switch fluorescence ratio is 0.956 ± 0.012. To GGGTTGGGCC belongs 0.989 ± 0.014; to GGGTTGGTAG, 0.984 ± 0.026. The figure for GGGTTGTAGT is 1.02 ± 0.032.

Take GGGTTGTGGA: the switch fluorescence ratio came to 1 ± 0.029.

Regarding GGGTTGTGGG, the switch fluorescence ratio came to 1 ± 0.043. In the case of GGGTTGTTGT, the switch fluorescence ratio stood at 0.982 ± 0.014. To GGGTTTAAAA belongs 0.985 ± 0.044; to GGGTTTAATT, 0.999 ± 0.011. To GGGTTTAGGT belongs 0.981 ± 0.011; to GGGTTTGAAG, 1 ± 0.025. To GGGTTTGATC belongs 0.9749 ± 0.008; to GGGTTTTCAT, 0.993 ± 0.012; to GGGTTTTGTT, 1.02 ± 0.029. For GGGTTTTTCC, the switch fluorescence ratio was found to be 1.1 ± 0.18. To GGTAAAAGTT belongs 1.01 ± 0.022; to GGTAAACAGG, 1.04 ± 0.031. As for GGTAAATAAG, the switch fluorescence ratio turned out to be 0.961 ± 0.018. The figure for GGTAAATGGG is 0.957 ± 0.011; for GGTAACCGCT it is 1.01 ± 0.03. To GGTAACCTTT belongs 1.43 ± 0.58. To GGTAACGACA belongs 1.02 ± 0.019; to GGTAAGGGTT, 0.9866 ± 0.0081. Consider GGTAAGTTTG, for which the switch fluorescence ratio worked out at 1.03 ± 0.028. In the case of GGTAATATTT, the switch fluorescence ratio is 0.998 ± 0.031. The figure for GGTAATGGTG is 1.0095 ± 0.00021; for GGTAATTGCG it is 0.99 ± 0.022; for GGTACACGGG it is 1.01 ± 0.054. To GGTACAGTTA belongs 0.985 ± 0.016; to GGTACGGGGG, 1 ± 0.013; to GGTACGGTAA, 1.11 ± 0.038.

On to GGTACGTATG, for which the switch fluorescence ratio is 0.986 ± 0.036. GGTACTA: the switch fluorescence ratio was 1.02 ± 0.0021. The figure for GGTACTGGAG is 1.04 ± 0.034; for GGTAGAAGCG it is 1.02 ± 0.026.

Regarding GGTAGAAGGG, the switch fluorescence ratio is 0.989 ± 0.042.

In the case of GGTAGAATTA, the switch fluorescence ratio was found to be 0.979 ± 0.032. To GGTAGCTTGG belongs 1.13 ± 0.17. The figure for GGTAGGAGAT is 1.05 ± 0.036; for GGTAGGGATG it is 0.962 ± 0.024. To GGTAGGGGGG belongs 1.01 ± 0.035; to GGTAGGGGGT, 1 ± 0.03; to GGTAGGTGGT, 0.98 ± 0.022. GGTAGTATGG: the switch fluorescence ratio is 1 ± 0.03. With GGTAGTCCAC, the switch fluorescence ratio came to 1.01 ± 0.027. To GGTAGTCCGG belongs 1.02 ± 0.054; to GGTAGTCCGT, 1.03 ± 0.016.

GGTAGTGGGT: the switch fluorescence ratio was 1 ± 0.013. The figure for GGTAGTGTTT is 0.998 ± 0.035.

For GGTAGTTAAA, the switch fluorescence ratio was found to be 0.999 ± 0.024. To GGTAGTTTCA belongs 0.9966 ± 0.00047; to GGTATAAGGA, 0.996 ± 0.016; to GGTATATGGG, 0.994 ± 0.03. To GGTATCACGG belongs 0.9912 ± 0.0045. To GGTATCCGTG belongs 1.019 ± 0.0085; to GGTATGAAGG, 0.9664 ± 0.0095; to GGTATGACTT, 1.03 ± 0.07. As for GGTATGATGG, the switch fluorescence ratio came to 0.991 ± 0.01. To GGTATGCGGT belongs 0.974 ± 0.027; to GGTATGGATC, 0.9869 ± 0.0084; to GGTATGGGAC, 1 ± 0.022.

Consider GGTATGGGTC, for which the switch fluorescence ratio was 0.947 ± 0.034. To GGTATGTAAG belongs 0.995 ± 0.02; to GGTATGTACG, 1.03 ± 0.054; to GGTATGTCGA, 0.954 ± 0.075.

Take GGTATTAAGG: the switch fluorescence ratio came to 1.02 ± 0.013. Turning to GGTATTAGAT, the switch fluorescence ratio is 1.01 ± 0.049. The figure for GGTATTAGGG is 1.002 ± 0.0014.
